Source: the MegaScale stability set (Tsuboyama et al. 2023)

B1: HEEH_KT_rd6_3632 (parent)
chain: DAEELIELVERALKEGREIILLGVRITSEEAGKWFIEWIRRFL

Variants of: B1
Assay: folding stability dG (cDNA display proteolysis); higher = more stable
Settings: PBS, room temperature
In the case of DAEELIELYERALKEGREIILLGVRITSEEAGKWFIEWIRRFL [V9Y], the “folding stability dG” value is reported as 2.87 kcal/mol. With DAEELIELNERALKEGREIILLGVRITSEEAGKWFIEWIRRFL [V9N] the “folding stability dG” value was 2.91 kcal/mol. In the case of DAEELIELAERALKEGREIILLGVRITSEEAGKWFIEWIRRFL [V9A], the “folding stability dG” value is reported as 3.19 kcal/mol. With DAEELIELVERALKEGREIILLGVRITSNEAGKWFIEWIRRFL [E29N] the “folding stability dG” value was 3.81 kcal/mol. With DAEELIELVERILKEGREIILLGVRITSEEAGKWFIEWIRRFL [A12I] the “folding stability dG” value was 3.73 kcal/mol. With DAEELIELVERTLKEGREIILLGVRITSEEAGKWFIEWIRRFL [A12T] the “folding stability dG” value was 3.3 kcal/mol. In the case of DAEELIELVERQLKEGREIILLGVRITSEEAGKWFIEWIRRFL [A12Q], the “folding stability dG” value is reported as 3.17 kcal/mol. For DAEELIELVERWLKEGREIILLGVRITSEEAGKWFIEWIRRFL [A12W], the “folding stability dG” value was 3.76 kcal/mol. In the case of DAEELIELVERALKEGREIILLGVRITSEEAGKWMIEWIRRFL [F35M], the “folding stability dG” value is reported as 3.43 kcal/mol. For DAEELIELVERALKEGREIILLGVRITSEEAGKWDIEWIRRFL [F35D], the “folding stability dG” value was 2.6 kcal/mol. In the case of DAEELIELVERALKEGREIILLGVRITSEEAGKWFIEWINRFL [R40N], the “folding stability dG” value is reported as 3.14 kcal/mol. With DAEELIELVERALKEGREIILLGVRITSEEAGKWFIEWISRFL [R40S] the “folding stability dG” value was 3.27 kcal/mol. For DAEELIELVERALKEGREIILLGVRIKSEEAGKWFIEWIRRFL [T27K], the “folding stability dG” value was 3.59 kcal/mol. In the case of DAEELIELVERALKEGREIILLGVQITSEEAGKWFIEWIRRFL [R25Q], the “folding stability dG” value is reported as 3.41 kcal/mol. In the case of DAEELIELVERALKEGREIILLGVWITSEEAGKWFIEWIRRFL [R25W], the “folding stability dG” value is reported as 3.77 kcal/mol. With DAEELIELVERALKEGREIILLMVRITSEEAGKWFIEWIRRFL [G23M] the “folding stability dG” value was 3.91 kcal/mol. In the case of DAEELIELVERALKEGREIILLKVRITSEEAGKWFIEWIRRFL [G23K], the “folding stability dG” value is reported as 3.55 kcal/mol. In the case of DAEELIELVERALKEGREIILLLVRITSEEAGKWFIEWIRRFL [G23L], the “folding stability dG” value is reported as 4.02 kcal/mol. In the case of DAEELEELVERALKEGREIILLGVRITSEEAGKWFIEWIRRFL [I6E], the “folding stability dG” value is reported as 3.18 kcal/mol. With DAEELGELVERALKEGREIILLGVRITSEEAGKWFIEWIRRFL [I6G] the “folding stability dG” value was 3.18 kcal/mol. In the case of DAEELIELVERALKENREIILLGVRITSEEAGKWFIEWIRRFL [G16N], the “folding stability dG” value is reported as 3.58 kcal/mol. With DAEELIELVERALKEEREIILLGVRITSEEAGKWFIEWIRRFL [G16E] the “folding stability dG” value was 3.1 kcal/mol. With DAEELIELVERALKEIREIILLGVRITSEEAGKWFIEWIRRFL [G16I] the “folding stability dG” value was 4.25 kcal/mol. For DAEELIELVERALKEGREIILLGVRITSEEAGWWFIEWIRRFL [K33W], the “folding stability dG” value was 3.7 kcal/mol. With DAEELIELVERALKEGREIILLGVRITSEEAGMWFIEWIRRFL [K33M] the “folding stability dG” value was 3.57 kcal/mol. For DAEELIELVERALKEGREIILLGVRITSEEAGTWFIEWIRRFL [K33T], the “folding stability dG” value was 3.56 kcal/mol. In the case of DAEELIELVERALKEGREIILLGVRITSEEAGRWFIEWIRRFL [K33R], the “folding stability dG” value is reported as 4.02 kcal/mol. For DAEELIELVERALKEGREIILLGVRITSEEAGIWFIEWIRRFL [K33I], the “folding stability dG” value was 3.56 kcal/mol. With DAEELIELVERALKEGREIFLLGVRITSEEAGKWFIEWIRRFL [I20F] the “folding stability dG” value was 3.32 kcal/mol. In the case of DAEELIELVERALKEGREIDLLGVRITSEEAGKWFIEWIRRFL [I20D], the “folding stability dG” value is reported as 2.84 kcal/mol. With DAEELIELVERALKEGREIMLLGVRITSEEAGKWFIEWIRRFL [I20M] the “folding stability dG” value was 3.26 kcal/mol. For DAEELIELVERALKEGREIIQLGVRITSEEAGKWFIEWIRRFL [L21Q], the “folding stability dG” value was 2.93 kcal/mol. For DAEELIELVERALKEGREIIMLGVRITSEEAGKWFIEWIRRFL [L21M], the “folding stability dG” value was 3.36 kcal/mol. With DAEELIELVERALKEGREIIPLGVRITSEEAGKWFIEWIRRFL [L21P] the “folding stability dG” value was 2.6 kcal/mol. In the case of DAEELIELVERALKEGREIIALGVRITSEEAGKWFIEWIRRFL [L21A], the “folding stability dG” value is reported as 3.37 kcal/mol. With DAEELIELVERALKEGREIILLGVRITSEEAGKWFIEWIRYFL [R41Y] the “folding stability dG” value was 3.81 kcal/mol. In the case of DAEELIELVERALKEGREIILLGVRITSEEAGKWFIEWIRNFL [R41N], the “folding stability dG” value is reported as 3.57 kcal/mol. For DAEELIELVERALKEGREIILLGVRITSEEAGKWFIEWIRPFL [R41P], the “folding stability dG” value was 2.84 kcal/mol. For DAEELIELVERALKEGREIILLGVRITSEEAGKWFIEWIRQFL [R41Q], the “folding stability dG” value was 3.6 kcal/mol. In the case of DAEELIELVERALKEGREIILLGVRITSEEAGKWFIEWIRSFL [R41S], the “folding stability dG” value is reported as 3.72 kcal/mol. In the case of DAEELIELVERAVKEGREIILLGVRITSEEAGKWFIEWIRRFL [L13V], the “folding stability dG” value is reported as 3.54 kcal/mol. With DAEELIELVERAEKEGREIILLGVRITSEEAGKWFIEWIRRFL [L13E] the “folding stability dG” value was 2.96 kcal/mol. In the case of DAEELIELVERAYKEGREIILLGVRITSEEAGKWFIEWIRRFL [L13Y], the “folding stability dG” value is reported as 3.28 kcal/mol. With DAEELIELVERAHKEGREIILLGVRITSEEAGKWFIEWIRRFL [L13H] the “folding stability dG” value was 2.99 kcal/mol. With DAEELIELVERACKEGREIILLGVRITSEEAGKWFIEWIRRFL [L13C] the “folding stability dG” value was 4.96 kcal/mol. For DAEELIEPVERALKEGREIILLGVRITSEEAGKWFIEWIRRFL [L8P], the “folding stability dG” value was 2.77 kcal/mol. For DAEELIEFVERALKEGREIILLGVRITSEEAGKWFIEWIRRFL [L8F], the “folding stability dG” value was 3.77 kcal/mol. For DAEELIEKVERALKEGREIILLGVRITSEEAGKWFIEWIRRFL [L8K], the “folding stability dG” value was 3.46 kcal/mol. With DAEELIENVERALKEGREIILLGVRITSEEAGKWFIEWIRRFL [L8N] the “folding stability dG” value was 2.93 kcal/mol. With DAEELIELVERALKEGREIILLGVRITIEEAGKWFIEWIRRFL [S28I] the “folding stability dG” value was 3.46 kcal/mol. In the case of DAEELIELVERALKEGREIILLGVRITKEEAGKWFIEWIRRFL [S28K], the “folding stability dG” value is reported as 3.17 kcal/mol. In the case of DAEELIELVERALKEGREIILLGVRITSEEAGKNFIEWIRRFL [W34N], the “folding stability dG” value is reported as 3.48 kcal/mol. For DAEELIELVERALKEGREIILLGVRITSEEAGKKFIEWIRRFL [W34K], the “folding stability dG” value was 3.81 kcal/mol. With DAEELIELVERALKEGREIILLGVRITSEEAGKVFIEWIRRFL [W34V] the “folding stability dG” value was 3.35 kcal/mol. With DAEELIELVERALKEGREIILLGVRITSEEAGKIFIEWIRRFL [W34I] the “folding stability dG” value was 3.6 kcal/mol. In the case of DAEELIELVERALKEGREIILLGVRITSEEAGKSFIEWIRRFL [W34S], the “folding stability dG” value is reported as 3.43 kcal/mol. For DAEQLIELVERALKEGREIILLGVRITSEEAGKWFIEWIRRFL [E4Q], the “folding stability dG” value was 3.95 kcal/mol. With DAEELIELVERALKEGREIILLGVRITSEEAGKWFIWWIRRFL [E37W] the “folding stability dG” value was 3.88 kcal/mol. In the case of DAEELIELVERALKEGREIILLGVRITSEEAGKWFIIWIRRFL [E37I], the “folding stability dG” value is reported as 3.87 kcal/mol.
